Measured values as given in paper PMC10528418 (Molecular cell, 2023).

B1: TFIIIC subunit τ131 (natural protein, S. cerevisiae, UniProt P33339 1-1025, looked up)
chain: MAAGKLKKEQQNQSAERESADTGKVNDEDEEHLYGNIDDYKHLIQDEEYDDEDVPHDLQLSEDEYNSERDSSLLAEFSDYGEISEDDEEDFMNAIREASNFKVKKKKKNDKGKSYGRQRKERVLDPEVAQLLSQANEAFVRNDLQVAERLFNEVIKKDARNFAAYETLGDIYQLQGRLNDCCNSWFLAAHLNASDWEFWKIVAILSADLDHVRQAIYCFSRVISLNPMEWESIYRRSMLYKKTGQLARALDGFQRLYMYNPYDANILRELAILYVDYDRIEDSIELYMKVFNANVERREAILAALENALDSSDEESAAEGEDADEKEPLEQDEDRQMFPDINWKKIDAKYKCIPFDWSSLNILAELFLKLAVSEVDGIKTIKKCARWIQRRESQTFWDHVPDDSEFDNRRFKNSTFDSLLAAEKEKSYNIPIDIRVRLGLLRLNTDNLVEALNHFQCLYDETFSDVADLYFEAATALTRAEKYKEAIDFFTPLLSLEEWRTTDVFKPLARCYKEIESYETAKEFYELAIKSEPDDLDIRVSLAEVYYRLNDPETFKHMLVDVVEMRKHQVDETLHRISNEKSSNDTSDISSKPLLEDSKFRTFRKKKRTPYDAERERIERERRITAKVVDKYEKMKKFELNSGLNEAKQASIWINTVSELVDIFSSVKNFFMKSRSRKFVGILRRTKKFNTELDFQIERLSKLAEGDSVFEGPLMEERVTLTSATELRGLSYEQWFELFMELSLVIAKYQSVEDGLSVVETAQEVNVFFQDPERVKMMKFVKLAIVLQMDDEEELAENLRGLLNQFQFNRKVLQVFMYSLCRGPSSLNILSSTIQQKFFLRQLKAFDSCRYNTEVNGQASITNKEVYNPNKKSSPYLYYIYAVLLYSSRGFLSALQYLTRLEEDIPDDPMVNLLMGLSHIHRAMQRLTAQRHFQIFHGLRYLYRYHKIRKSLYTDLEKQEADYNLGRAFHLIGLVSIAIEYYNRVLENYDDGKLKKHAAYNSIIIYQQSGNVELADHLMEKYLSI

Experiments:
[1] = biological target: B1; assay: cryo-EM structure
[2] = biological target: T1, TFIIIC subunit τ138 (S. cerevisiae, UniProt P34111 1-1160); assay: cryo-EM structure
T1 sequence (looked up): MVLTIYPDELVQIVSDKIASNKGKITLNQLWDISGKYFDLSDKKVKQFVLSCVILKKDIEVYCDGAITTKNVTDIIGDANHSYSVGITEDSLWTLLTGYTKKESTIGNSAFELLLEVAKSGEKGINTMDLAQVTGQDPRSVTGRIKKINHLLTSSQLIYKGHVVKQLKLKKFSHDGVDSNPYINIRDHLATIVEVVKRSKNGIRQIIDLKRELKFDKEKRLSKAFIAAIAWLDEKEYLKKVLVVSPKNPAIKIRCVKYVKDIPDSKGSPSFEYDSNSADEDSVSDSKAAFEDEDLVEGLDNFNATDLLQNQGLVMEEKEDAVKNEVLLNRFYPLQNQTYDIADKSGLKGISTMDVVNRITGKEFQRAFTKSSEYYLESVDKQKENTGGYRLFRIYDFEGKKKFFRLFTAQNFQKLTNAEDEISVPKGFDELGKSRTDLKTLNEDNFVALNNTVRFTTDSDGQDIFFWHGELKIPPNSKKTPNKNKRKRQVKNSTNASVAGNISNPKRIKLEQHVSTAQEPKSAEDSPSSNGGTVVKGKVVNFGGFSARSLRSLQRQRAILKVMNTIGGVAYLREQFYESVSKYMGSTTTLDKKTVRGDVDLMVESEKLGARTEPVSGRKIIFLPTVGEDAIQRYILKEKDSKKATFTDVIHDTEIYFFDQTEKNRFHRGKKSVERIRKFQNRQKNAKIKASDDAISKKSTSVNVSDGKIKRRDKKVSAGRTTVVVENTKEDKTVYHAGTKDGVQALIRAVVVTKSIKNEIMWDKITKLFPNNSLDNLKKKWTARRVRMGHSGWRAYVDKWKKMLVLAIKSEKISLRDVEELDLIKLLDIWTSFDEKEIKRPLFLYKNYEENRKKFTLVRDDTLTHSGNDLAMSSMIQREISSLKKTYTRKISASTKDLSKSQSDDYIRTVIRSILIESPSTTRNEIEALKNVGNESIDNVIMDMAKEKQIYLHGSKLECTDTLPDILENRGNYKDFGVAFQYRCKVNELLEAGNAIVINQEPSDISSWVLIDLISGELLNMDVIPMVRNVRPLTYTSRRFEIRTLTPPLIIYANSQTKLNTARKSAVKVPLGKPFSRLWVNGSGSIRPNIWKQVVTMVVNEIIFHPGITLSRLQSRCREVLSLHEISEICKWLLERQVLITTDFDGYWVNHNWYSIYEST

| Binder | binding result [1] | binding result [2] |
| --- | --- | --- |
| TFIIIC subunit τ95 (natural protein, S. cerevisiae, UniProt P32367 1-649, looked up) MPVEEPLATLSSIPDSSADQAPPLIADEFTLDLPRIPSLELPLNVSTKHSSIQKAIKMCGGIEKVKEAFKEHGPIESQHGLQLYLNDDTDSDGSKSYFNEHPVIGKRVPFRDESVILKVTMPKGTLSKNNNSVKDSIKSLKDSNKLRVTPVSIVDNTIKFREMSDFQIKLDNVPSAREFKSSFGSLEWNNFKSFVNSVPDNDSQPQENIGNLILDRSVKIPSTDFQLPPPPKLSMVGFPLLYKYKANPFAKKKKNGVTEVKGTYIKNYQLFVHDLSDKTVIPSQAHEQVLYDFEVAKKTKVYPGTKSDSKFYESLEECLKILRELFARRPIWVKRHLDGIVPKKIHHTMKIALALISYRFTMGPWRNTYIKFGIDPRSSVEYAQYQTEYFKIERKLLSSPIVKKNVPKPPPLVFESDTPGGIDSRFKFDGKRIPWYLMLQIDLLIGEPNIAEVFHNVEYLDKANELTGWFKELDLVKIRRIVKYELGCMVQGNYEYNKYKLKYFKTMLFVKESMVPENKNSEEGMGVNTNKDADGDINMDAGSQMSSNAIEEDKGIAAGDDFDDNGAITEEPDDAALENEEMDTDQNLKVPASIDDDVDDVDADEEEQESFDVKTASFQDIINKIAKLDPKTAETMKSELKGFVDEVDL | binds | binds |
| TFIIIC subunit τ91 (natural protein, S. cerevisiae, UniProt Q06339 1-672, looked up) MAVIPAKKRGRPRKSVVAEVPYDSLASPVSENSGSKRPRRNASKKAVANFAQLVHAGRDDVINTTQVNNVDDTDDDDFVLNDEGDGEESDNVEIEFENELESTKNEVADLNSSGSGASVRPSGRRNTVQKLRLKKNSTKNMKSSSPGSSLGQKGRPIRLLKDLSSARDKIERIYGLNKEKLLLLAKVKEGFETSVFDFPFKNIQPDSPYFVCLDPPCKKESAYNKVIGDKNRTVYHEINKTEFENMIKLRTKRLKLLIGEVDAEVSTGDKIEFPVLANGKRRGFIYNVGGLVTDIAWLNIEENTDIGKDIQYLAVAVSQYMDEPLNEHLEMFDKEKHSSCIQIFKMNTSTLHCVKVQTIVHSFGEVWDLKWHEGCHAPHLVGCLSFVSQEGTINFLEIIDNATDVHVFKMCEKPSLTLSLADSLITTFDFLSPTTVVCGFKNGFVAEFDLTDPEVPSFYDQVHDSYILSVSTAYSDFEDTVVSTVAVDGYFYIFNPKDIATTKTTVSRFRGSNLVPVVYCPQIYSYIYSDGASSLRAVPSRAAFAVHPLVSRETTITAIGVSRLHPMVLAGSADGSLIITNAARRLLHGIKNSSATQKSLRLWKWDYSIKDDKYRIDSSYEVYPLTVNDVSKAKIDAHGINITCTKWNETSAGGKCYAFSNSAGLLTLEYLS | binds |  |
| S. cerevisiae TFIIIA (natural protein) MGGEVLNNEGMPLAELKQETIPISRSESSESLNSLTSTRSSSSNRPKTYFCDYDGCDKAFTRPSILTEHQLSVHQGLRAFQCDKCAKSFVKKSHLERHLYTHSDTKPFQCSYCGKGVTTRQQLKRHEVTHTKSFICPEEGCNLRFYKHPQLRAHILSVHLHKLTCPHCNKSFQRPYRLRNHISKHHDPEVENPYQCTFAGCCKEFRIWSQLQSHIKNDHPKLKCPICSKPCVGENGLQMHMIIHDDSLVTKNWKCHICPDMSFSRKHDLLTHYGSIHTEEDIPLELKYKISDIQQLVQDHGVQLGNSKHSNEQDEEKISNRLRKRRKLTENNNVEFLQNEVDLEKRLESGENGLNLLLNTVGRKYRCFYNNCSRTFKTKEKYEKHIDKHKVHELKLKILQEKEENKTLVDQNHKEPFIIQKETQSAGDK |  | binds |
| B1 |  | binds |
